This is an account of results in patent US20190040143A1 (AstraZeneca / MedImmune, published 2019).

The target of test [1] is T1, recombinant HER3 (Cat. No. 348-RB, R&D Systems) (UniProt P21860 20-643).
T1 construct: Detected through a His tag; also called labeled recombinant HER3 protein
The experiment in a line: HRG-HER3 binding ELISA: HRGb1 coated, antibody dilutions premixed with 5 ug/ml recombinant His-tagged HER3, bound HER3 detected with anti-His HRP; blocked ligand HRG.

The target of test [2] is human HER3 on human cancer cell lines (human, UniProt P21860 20-1342). The experiment in a line: cell-based or functional assay.

B1: Clone 16 antibody (CL16), parental IgG1 (antibody, V domains shown)
VH: EVQLLESGGGLVQPGGSLRLSCAASGFTFSYYYMQWVRQAPGKGLEWVSYIGSSGGVTNYADSVKGRFTISRDNSKNTLYLQMNSLRAEDTAVYYCARVGLGDAFDIWGQGTMVTVSS
VL: QYELTQPPSASGTPGQRVTMSCSGSSSNIGLNYVSWYQQLPGTAPKLLISRNNQRPSGVPDRFSGSKSGTSASLAISGLRSEDEADYYCAAWDDSLSGEVFGGGTKLTVL
notes: also called Clone 16-PA; parental Clone 16 monoclonal antibody
For B1, in test [1], the “IC50 (read off the curve)” value was around 0.7 µg/mL.

B2: 2C2 monoclonal antibody (IgG1) (antibody, V domains shown)
VH: EVQLLESGGGLVQPGGSLRLSCAASGFTFSYYYMQWVRQAPGKGLEWVSYIGSSGGVTNYADSVKGRFTISRDNSKNTLYLQMNSLRAEDTAVYYCARVGLGDAFDIWGQGTMVTVSS
VL: QSVLTQPPSASGTPGQRVTISCSGSLSNIGLNYVSWYQQLPGTAPKLLISRNNQRPSGVPDRFSGSKSGTSASLAISGLRSEDEADYYCAAWDDSPPGEAFGGGTKLTVL
For the molecule B2, in test [2], the “potency by IC50 in HRGβ1-induced pHER3 ELISA, MCF-7 cells, against MM and AMG” value is around 5 fold.
